The nature of the data set: soluble on expression in E. coli; label from the status in PepcDB or PDB records.
Consider “MGLTVEAADEKGLTLRLPYSQAIIGNPESGVVHGGAITTLMDTTCGISTVCVLPDFEICPTLDLRIDYMHPAEPHKDVYGFAECYRVTPNVIFTRGFAYQDDPGQPIAHVVGAFMRMGLEHHHHHH”, for which the “soluble on expression in E. coli” value is on record as “not soluble”.
For “MKVGFFLLKFPLSSETFVLNQITAFIDMGFEVEIVALQKGDTQNTHVAWTKYNLAARTRWLQDEPTGKVAKLRHRASQTLRGIHRKNTWQALNLKRYGAESWNLILSAICGQVATPFRADVFIAHFGPAGVTAAKLRELGVIHGKIATIFHGIDISSREVLNHYTPEYQQLFRRGDLMLPISDLWAGRLQKMGCPREKIAVSRMGVDMTRFSPRPVKAPATPLEIISVARLTEKKGLHVAIEACRQLKEQGVAFRYRILGIGPWERRLRTLIEQYQLEDVVEMPGFKPSHEVKAMLDDADVFLLPSVTGADGDMEGIPVALMEAMAVGIPVVSTLHSGIPELVEADKSGWLVPENDARALAQRLAAFSQLDTDELAPVVKRAREKVEHDFNQQVINRELASLLQAL”, the “soluble on expression in E. coli” value is “not soluble”.
With “LKSSRFHEKILCDIGGVPMFVATARRVSSVDEVCIALDDEKVLSIAKEYGLNAVLTSKDHESGTDRINEACKKLALKDDEIIINVQADEPFIECENLLKFKEFASFCLDKKAFMASCYKKITQEEAMDPNLVKVLCDKEGYALYFSRAKIPYERENYEESFKGHLGIYAYSVKALREFCSLSSSALERAEKLEQLRAIENGKKIKMLEISTTSMGIDTKEDYERALKIYLEK” the entry was “not soluble”.
Regarding “MKVLIGGYTKKTSKGIYELPFIGEDNEAHLEKAENIISVGGPTYFQKDGDLVFTINNAGDEGGISAFKLSDHGSNEIDRHLTPGASPAYIGINKEKKLLYTANYHTAVLSVFQYSNSGKLALVAQTTHKAESLGPRPEQVDGPHPHFFDETPAGNLVSCDLGNDTVDFYRLENNELKHLAQYKNEAGFGDRHIVFSKDGNYFYVVGELSSQINVVKFNENTWEFEDIATYKTIPEDFTEHNGAAALYITNDGKYIYNSNRGHNSITVFKVNDDHTLSLIQRISTFGDFPRDFNWDETQKYVVAANQNTDNATLYLRNGGNGTLTPIQTEIPVPEGTRVLFTKLEHHHHHH”, the “soluble on expression in E. coli” value is reported as “not soluble”.
In the case of “QRKKAEEALRLSNIYNRSLIESSLDPLVTIGRDGKITDVNCATEQVTGYPRNDLIKTDFSDYFTEPENARAGYKQVFTDGEVRDYPLEIQHKDGHITPVLYNASVYRDENGEVIGVFAAARDIT”, the “soluble on expression in E. coli” value was “not soluble”.
As for “MGSDKIHHHHHHMTTEFKGQTIPPMHTGGQGAVTGQRFLDRLRQNPPTLYIDGQRVADPTTHPSTRNMCQSLAGLYDLQFQEDLKETLTYEDGGKRYARSFMVPRTKDDLRLIAESHRIRANYGLGFLGRAPDYMNANVMAAGAGAEYFNGCSAAVPGDPKRDFAANMRRYYEYVQGNDLCLTHALTNPQVNRSKMASELPDPYIALGIVEETDEGVIVRGARMMATLPIADEILIFPSTVLKENADKSRYAMGFGIPTNTPGLSFQCREPIDVGRDPEDHPLSSRFDEQDAFVIFDDVLVPWERIFLLYDVELANKAYAGTDAVLHMAYQVVNLKIAKTEAFLGTAQSIVNAIGSGGFQHVQAKIAEIIIMLEIMKALEVAAREQAEPNDYGVMTPARAPLDAARNYYPANHARLPELLQLLGASGIIMMPSKADREGPLGPQIAKYLQTGNANADERLRLFRLAWDMSMSSFAGRQELYERYFFGDPVRMHSALYEVYDSSEAVARIGEFLQRK”, the “soluble on expression in E. coli” value is “not soluble”.
For “MGSDKIHHHHHHMTEKEIVDYIKNNDIQKIKFAFADIDGVLRGKLIHTDKFLDGLKEGLGFCDVVFGWDSADAGYDNVSATGWHTGYPDKLAQIDLSTFRLIPWENNTPFFLADYKNNDQTALPICPRTLLKRIAQECSAMGYHAAFAQEFEWFNFRETQQSLVEKNFHDLTPLTNGMFGYSILRPSLEDAYYNDLFDLLGAFDIPLEGLHTETGPGVYECAYFHDEVVRAADKATLLKTAVKEIANKHGIIATFMAKISDKLPGCSGHIHQSLWNTGKTENLFYDPNQEHNMSDLFKHYVAGQLYCLPHIVPMLAPTVNSYKRLVEGAWAPTTLTWGFDNRTTALRVLNHSKKTARLEQRVSGSDTNPYLAIAASLASGLYGIKHKLSLDVPPTTGNGYANKSNGSIASNLMDATQLMKNSSIAKELFGEAFVQHFTATREWEWRQFSKHVSDWEMKRYMEII” the value was “not soluble”; for “MGHHHHHHSHMKPNVGQGSTSVQTAMESELGESSATINKRLCKSTIELSENSLLPASSMLTGTQSLLQPHLERVAIDALQLCCLLLPPPNRRKLQLLMRMISRMSQNVDMPKLHDAMGTRSLMIHTFSRCVLCCAEEVDLDELLAGRLVSFLMDHHQEILQVPSYLQTAVEKHLDYLKKGHIENPGDGLFAPLPTYPYCKQISAQEFDEQKVSTSQAAIAELLENIIKNRSLPLKEKRKKLKQFQKEYPLIYQKRFPTTESEAALFGDKPTIKQPMLILRKPKFRSLR”, “not soluble”.
Consider “MGSDKIHHHHHHMHVGRENSSFQICNSSQDIRKSDILDAMSIRFRQLQAFHATFETGTVTGAATLLGISQPGISNLLAQLERETRFKLFERVKGRLIPTPEAGVLYQEVDTVVRGLDHVGQAVTDLQNKQGGQLQVASQHAMSFGFMPKLIAQFAKTRPDMSISFQSQYSSKVQEWVMSGLFEIGVCETPQLYDALDTHPFQVEMQLTLHPDNPLARHDILTPELCGAEPFIVMGPDHMTHRRTREAFHTAGVPWNTRVHTHLFKNMLSFVQEDMGVAILDPFLLDHDESGSFVTRPFAPAIHMDMMVITSATRPLSTLALDFLDLLLTGIAQSDRRRVSPSNAAPGRPPLPMAAR”, for which the “soluble on expression in E. coli” value is “not soluble”.
For “MNEKWIVERAEREGGRLWLYVNDAPVPLARVTPKRHMLVDSDALAFAYILETDDRFLYVMVPKLWWPELKAALDAEEPVWLRCGERTLELEQFHDELSYLLENIRGNANYGEALEQAVQDVFFEQ” the value was “not soluble”.
For “PDAARKAQILWCQPDRAKAWTDWMRKGKFPVGGSICDNPVAETTSLGEQFGFNGTPTLVFPNGRSQSGYSPMPQLEEIIRKNQ”, the “soluble on expression in E. coli” value was “not soluble”.
For “MTLHKPTQAVPCRAPKVGRLIYTAGGYFRQSLSYLEAYNPSNGSWLRLADLQVPRSGLAGCVVGGLLYAVGGRNNSPDGNTDSSALDCYNPMTNQWSPCASMSVPRNRIGVGVIDGHIYAVGGSHGCIHHSSVERYEPERDEWHLVAPMLTRRIGVGVAVLNRLLYAVGGFDGTNRLNSAECYYPERNEWRMITPMNTIRSGAGVCVLHNCIYAAGGYDGQDQLNSVERYDVETETWTFVAPMRHHRSALGITVHQGKIYVLGGYDGHTFLDSVECYDPDSDTWSEVTRMTSGRSGVGVAVTMEPCRKQIDQQNCTCY” the value was “soluble”.
With “FNWDRAMYSLITYFLAYKVIDIVIQGVDESKSAFIISRYYEEIGAEIMEQLGKGVTYLDATGGYSGDVRKVVFVIVSRFEEVKVKAILDEIDPDAFLAVGGSMSEVRGGKLMNTKTPHL” the entry was “not soluble”.
With “MRILQLILLALATGLVGGETRIIKGFECKPHSQPWQAALFEKTRLLCGATLIAPRWLLTAAHCLKPRYIVHLGQHNLQKEEGCEQTRTATESFPHPGFNNSLPNKDHRNDIMLVKMASPVSITWAVRPLTLSSRCVTAGTSCLISGWGSTSSPQLRLPHTLRCANITIIEHQKCENAYPGNITDTMVCASVQEGGKDSCQGDSGGPLVCNQSLQGIISWGQDPCAITRKPGVYTKVCKYVDWIQETMKNN” the entry was “soluble”; with “SDDKPNPEALSDSSERLFSFGVIADVQFADLEDGFNFQGTRRRYYRHSLLHLQGAIEDWNNESSMPCCVLQLGDIIDGYNAQYNASKKSLELVMDMFKRLKVPVHHTWGNHEFYNFSREYLTHSKLNTKFLEDQIVHHPETMPSEDYYAYHFVPFPKFRFILLDAYDLSVLGVDQSSPKYEQCMKILREHNPNTELNSPQGELFL”, “soluble”.
With “MGDEFRPSHEERSKMYKSNVRDQNEMRRKRREDEVQIRKNRRDEKFERNRQITVQRSLSHEETSELLKSVADGLQSMQETTIHEALTVLHENLNNTVWTIHVLVKVQILHKLSDVYCNRVISQTTRLLISRTLLKISGIDEVKYERYSSDDRCIQSLVFNISTYGSSEDILCDTFQSIACFIIRSITYRNLALDCAIVSELIDASTINMSIILHRSLMWLVFLFCEKLDRCSPHVDEIAPLLEIISNGIQSTDAMVQTDAASSCASLAEWPPIYHYMSDLKLCSKLVANLRNDKGNARPKVKAGINSIIQATGYFTEEMIDAGLLEVLKGFVNVSYMSQEVCFIISNICVEGEQTIDKLISSGVLREVARVMEASEYRSRREAAFVICHCCASANQKHLEYVVELGMLSAFTDLLTCMDVSLVSYILDAIYLLLQFGEMRLLPDNSNPVAIKLEEIGCREKLEFLCESQSVDIHARAYTIIDRFYVDDDAPLNDDPFAGYQRNNIDDTIEKMIREPIMDQPFSF”, the “soluble on expression in E. coli” value is recorded as “not soluble”.
With “MVFYGQPVTDDSTIRLSGQGVNTAFSVNLQAINHDVQKIAFTATCDGNQTLSQLGNLSIQVELNGSVLMKGDVETQGRQEAALILGELYRRNTEWKFRFVAQGFNGGLKPLAEHFGVVVEDEPAAPTPVPTPVSTPAPTAPPVAKPINLSKVSLTKEKPVISLTKRDDFGEIRVNLNWHRGGGAPAKGFLQGIFNSNKGIDLDLGAFVALNDGSRGVIQALGNNFGSYHSEPYVQLQGDDRTGDVSDGEWMHINGREWKHVKEVLIFAFIYEGVPSWGSTDGIVTINVPGQAPIETQMNEGNDRKNMCAVARLVNESGNIKVERINRYFSGHKEMDEAFGWGFRWKAGSK” the entry was “not soluble”; with “GPGSMKRFGIWTRPSLGRRSFYAGLDDSRVMRLRRSNTTLNKPRGRDAFSLAFEKRIHLLPLTQVGDLYGLPVPPSAPGESSGGAAEETIRVLVVDLLLLEDVESLISFPASNPLYYEDWPTVSDNSEGEVPSDRRSGISSSLALGESGFSLPSSNKRHLRQYGDTTLLRNSFVREAAHGVSAQFHTAICINPFIDVDRFRREEAQVEMISAYRNILYEAAEVPDGRADVIRIPALCCDTCGPRFYHEIGKLNQQSLIKGFHRIGSEAKETLMLNPKFIVEVYVPLPFLQQFQRAFLEDAWETPESTLNPGRTALYPGLAPPRSLLPLEGWIGKRPELVEAIETEGRSLMSGVKYSLDGKPIEEREVLAELRVFGREKEQEEMLKREEETATQQGLEVAPNGNTVAPLRAGIDQN”, “not soluble”.
For “MSQQSLISPSLQDILCKIQFNDTQFETTKKITRKRSNNFNPDRKKRNRITFDANQIDEMEKVFAENQYPDTMSREKLANKIQLHEERVQIWFQNRRAKYRREQKQTGHPYEPPSITKNPTGEKEKTQDCTTLTSASSPGPSNLSNDTLVSIEMAPKIGTKSVNLFPDQALSNTLNMIINANKNASENNYESEDQFNAESAKLLMLTLSNLFSLQNETTCE” the value was “not soluble”.
With “SQPDHGRLSPPEAPDRPTISTASETSVYVTWIPRGNGGFPIQSFRVEYKKLKKVGDWILATSAIPPSRLSVEITGLEKGISYKFRVRALNMLGESEPSAPSRPYVVSG”, the “soluble on expression in E. coli” value is listed as “soluble”.
For “MVMSKYTQEQIKNLVEGNLDWNTVLKMLSMPKDHERFQMYLKVLQDKVDFDDKIVLPLGPHLFVVQDAQKKWVIKCSCGHAFCAPEENWKLHANIYVRDTAEKMEEVYPKLLASDTHWQVYREYICPDCGILLDVEAPTPWYPVIHDFEPDIEVFYKDWLGIQPPERR” the value was “not soluble”; for “MESEMSDPQPLQEERYDMSGARLALTLCVTKAREGSEVDMEALERMFRYLKFESTMKRDPTAQQFLEELDEFQQTIDNWEEPVSCAFVVLMAHGEEGLLKGEDEKMVRLEDLFEVLNNKNCKALRGKPKVYIIQACRGEHRDPGEELRGNEELGGDEELGGDEVAVLKNNPQSIPTYTDTLHIYSTVEGYLSYRHDEKGSGFIQTLTDVFIHKKGSILELTEEITRLMANTEVMQEGKPRKVNPEVQSTLRKKLYLQ”, “soluble”.

These data come from the DeepSol protein solubility set.
